Results published in publication PMC3273815.

Experiments:
[1] = target: BcMCM Walker B mutant (D711A) (Bacillus cereus (integrated prophage)); test: SEC
[2] = target: BcMCM 501–1028 (helicase domain) (Bacillus cereus (integrated prophage)); test: negative-stain electron microscopy
[3] = target: BcMCM presensor I β-hairpin mutant (R737A) (Bacillus cereus (integrated prophage)); test: SEC
BcMCM wild type [4] = target: T1, BcMCM wild type (Bacillus cereus (prophage), UniProt Q81EV1 1-1028); test: pull-down
T1 sequence: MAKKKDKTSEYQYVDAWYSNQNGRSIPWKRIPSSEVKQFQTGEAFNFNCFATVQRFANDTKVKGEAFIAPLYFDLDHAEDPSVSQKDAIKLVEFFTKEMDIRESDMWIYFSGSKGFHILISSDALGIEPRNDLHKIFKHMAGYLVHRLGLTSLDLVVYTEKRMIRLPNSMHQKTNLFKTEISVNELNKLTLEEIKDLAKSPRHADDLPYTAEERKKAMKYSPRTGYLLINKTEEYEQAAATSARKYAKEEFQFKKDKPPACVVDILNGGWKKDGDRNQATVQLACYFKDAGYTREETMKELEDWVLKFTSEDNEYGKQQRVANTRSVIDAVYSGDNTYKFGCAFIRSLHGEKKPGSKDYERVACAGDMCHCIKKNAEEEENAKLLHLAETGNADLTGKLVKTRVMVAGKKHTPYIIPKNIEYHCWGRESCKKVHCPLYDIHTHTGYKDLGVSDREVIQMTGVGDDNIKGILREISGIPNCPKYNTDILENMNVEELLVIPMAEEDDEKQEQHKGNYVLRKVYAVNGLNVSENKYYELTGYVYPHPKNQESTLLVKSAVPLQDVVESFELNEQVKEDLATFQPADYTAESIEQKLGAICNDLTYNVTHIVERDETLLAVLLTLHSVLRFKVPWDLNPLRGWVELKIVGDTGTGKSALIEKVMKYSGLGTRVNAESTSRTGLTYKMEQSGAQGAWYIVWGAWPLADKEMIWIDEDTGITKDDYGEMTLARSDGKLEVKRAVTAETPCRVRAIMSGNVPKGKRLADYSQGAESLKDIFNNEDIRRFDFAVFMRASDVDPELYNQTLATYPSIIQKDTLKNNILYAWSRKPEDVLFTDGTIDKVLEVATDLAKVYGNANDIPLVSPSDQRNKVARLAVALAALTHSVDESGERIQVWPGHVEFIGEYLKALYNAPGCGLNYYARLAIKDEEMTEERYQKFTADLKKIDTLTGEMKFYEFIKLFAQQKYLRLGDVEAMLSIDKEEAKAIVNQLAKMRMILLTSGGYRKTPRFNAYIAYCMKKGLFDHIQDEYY

BcMCM wild type [5] = target: T1, BcMCM wild type; test: EMSA

BcMCM Walker B mutant (D711A) (enzyme)
stoichiometry N [1]: 6

BcMCM 501–1028 (helicase domain) (domain or fragment)
stoichiometry N [2]: 6

BcMCM presensor I β-hairpin mutant (R737A) (enzyme)
stoichiometry N [3]: 6

B1: biotin-EcoRI-(dT)50 tailed duplex (mixed)
DNA 1: TCCCCCGAATTCCCCCCTTTTTTTTTTTTTTTTTTTTTTTTTTTTTTTTTTTTTTTTTTTTTTTTTT
DNA 2: GGGGGGAATTCGGGGG
modifications: 5' biotin on strand 1
binding result (BcMCM wild type [4]): binds

B2: bubble (dsDNA)
DNA 1: ACTGGCCGTCGTTTTACAACGTCGTGACTGGGAAAACCCTGGCGTTACCCAACTTAATCG
DNA 2: CGATTAAGTTGGGTAACGGGTCCCAAAAGGGTCAGTGCTGCATGTAAAACGACGGCCAGT
binding result (BcMCM wild type [5]): binds

B3: template-primer, 3'-end oligo (mixed)
DNA 1: ACTGGCCGTCGTTTTACAACGTCGTGACTGGGAAAACCCTGGCGTTACCCAACTTAATCG
DNA 2: CGATTAAGTTGGGTAACGCC
binding result (BcMCM wild type [5]): binds

B4: template-primer, 5'-end oligo (mixed)
DNA 1: ACTGGCCGTCGTTTTACAACGTCGTGACTGGGAAAACCCTGGCGTTACCCAACTTAATCG
DNA 2: GTTGTAAAACGACGGCCAGT
binding result (BcMCM wild type [5]): binds
